The results in this text go back to patent US20140220033A1, “Administration of an Anti-Activin-A Compound to a Subject” (Santa Maria Biotherapeutics, Inc., priority 2013, published 2014).

One test relates to Ang-1. Briefly: Ang-1 release into culture medium (ELISA). Type of test: cell-based, human. The conditions noted are these: MRC-5 and CCD-Lu cells treated with activin-A, without or with sActRIIB; FIG. 17B. As to the method: The serum VEGF levels in inh-KO mice were measured by using immunoassay kit (R&D Systems), and the levels of human VEGF and Ang-1 in cell line culture medium were quantified using ELISA kits purchased from Invitrogen (VEGF) and R&D Systems (Ang-1), by following the manufacturers' recommended protocols.
Background: ELISA stands for enzyme-linked immunosorbent assay.

The next test has as its system VEGF. Briefly: VEGF immunostaining in TOV-21G xenograft tumor sections. Type of test: in vivo, mouse. The conditions noted are these: treated vs untreated sections (strong immunostaining); FIG. 15A. As to the method: (§1) 5×10^6 TOV-21G ovarian cancer cells were implanted subcutaneously into individual female athymic nu/nu mice (Harlan). Treatment was initiated at day 12 after tumor implantation, when the average tumor volume reached approximately 150 mm^3. The mice received PBS, sActRIIB (30 mg/kg, SC, 1×/week) or activin-A antibody (30 mg/kg, SC, 2×/week). In a separate chemotherapy combination experiment, the mice were treated with PBS, sActRIIB (10 mg/kg, SC, 1×/week), 5-FU (50 mg/kg, IP, 3 cycles, 4 daily injections per cycle) or sActRIIB and 5-FU combination at the same doses above.
(§2) Zinc-formalin fixed paraffin tumor tissue sections of 4 μm in thickness were prepared. The sections were subjected to antigen retrieval by microwave 3 min in Unmask solution (Vector H-3300) followed by incubation in 10 μg/ml Proteinase-K for 20 min and in 1% H2O2 in dH2O for 10 min at room temperature. The sections were further incubated in 0.1% Tween-20 in PBS for 3 min to permeabilize the cell membrane and in goat serum for 30 min to block non-specific binding. The sections were then incubated at room temperature with specific primary antibody for 3 hours followed by incubation in biotinylated or fluorescently labeled secondary antibody. […] The immunostained tissue sections were analyzed and photographed using a Nikon Eclipse 90i microscope equipped with DS-Ril camera. […]

Test [1] has as its system DNA fragmentation (apoptosis) in TOV-21G tumors. Nature of the test: TUNEL assay in TOV-21G xenograft tumor sections. Type of test: in vivo, mouse. The conditions noted are these: FIG. 15C. As to the method:
as §1
Cell apoptosis in TOV-21G tumors was analyzed by measuring the amounts of fragmented DNA in the tumor sections using the DeadEnd Fluorometric TUNEL System following the manufacturer's recommended protocols (Promega, G3250). The fluorescein-12-dUTP-labeled DNA was visualized by Nikon fluorescence microscopy.

The next test has as its system E-cadherin. Nature of the test: E-cadherin in ovarian tumors of inh-KO mice (Western blot, immunostaining). Type of test: in vivo, mouse. How it is done: (§3) 12-week-old female and 8-week-old male inh-KO mice with fully established ovarian or testicular tumors received a single injection of PBS or sActRIIB (30 mg/kg, SC). As a control, age-matched wild-type littermates received a single injection of PBS. Ovarian and testicular organ weights were determined by necropsy 14 days after the injection.
(§4) Protein extracts were prepared from cell cultures or tissues in T-PER tissue protein extraction reagent (Pierce) containing a mixture of protease inhibitors (Roche). A pool of 50 μg total protein for each group containing equal amounts of protein extract isolated from individual animals was separated by NuPAGE 4-12% Bis-Tris gel (Invitrogen) and transferred to PVDF. The membranes were probed with primary antibodies against total Smad2, p-Smad2 or E-cadherin (1:1000; Cell Signaling), endoglin, osteopontin (1:500; R&D Systems), IGFBP-1, IGFBP-2 (1:500; Abcam) followed by HRP-conjugated secondary antibody (1:2000; Cell Signaling). The membranes were stripped and re-probed with antibody against α-tubulin (1:1000; Cell Signaling).
Zinc-formalin fixed paraffin tumor tissue sections of 4 μm in thickness were prepared. […] The immunostained tissue sections were analyzed and photographed using a Nikon Eclipse 90i microscope equipped with DS-Ril camera. […]
For orientation: Immunoblotting shows a protein as a band on a membrane.

The subject of another test is IGFPB-2. Nature of the test: Western blot of IGFBP-2 in ovarian tumors of inh-KO mice. Type of test: in vivo, mouse. The conditions noted are these: FIG. 8D. How it is done: as §3, §4
The subject of another test is endoglin. Briefly: Western blot of endoglin in ovarian tumors of inh-KO mice. The conditions noted are these: FIG. 8D. Type of test: in vivo, mouse. As to the method: as §3, §4
The next test has as its system IGFBP-1. Briefly: Western blot of IGFBP-1 in ovarian tumors of inh-KO mice. Type of test: in vivo, mouse. The conditions noted are these: FIG. 8D. How it is done:
as §3, §4

The test system of a further test is VEGF transcripts. Nature of the test: VEGF mRNA in cell cultures (real-time RT-PCR). Type of test: cell-based, human, bovine. The conditions noted are these: TOV-21G, BAEC, MRC-5, CCD-Lu, U937 cultures treated with recombinant activin-A, without or with sActRIIB; FIG. 16A. Background: Quantitative PCR measures a nucleic acid by following its amplification.
In another test the test system is activin-A (βA) mRNA. Briefly: Endogenous activin-A (βA) mRNA in cell cultures (real-time RT-PCR). Type of test: cell-based, human, bovine. The conditions noted are these: TOV21G, BAEC, MRC-5, CCD-Lu, U937 and THP-1 cultures treated with recombinant activin-A, without or with sActRIIB; FIG. 18.
The test system of test [2] is TOV-21G ovarian cancer xenografts. Nature of the test: TOV-21G ovarian cancer xenograft growth in nude mice. Type of test: in vivo, mouse. As to the method: as §1
For all xenograft experiments, the tumor sizes were measured longitudinally by using an electronic caliper Immediately prior to the 1st dose, the tumor-bearing mice were randomized to ensure even distribution in tumor sizes across different groups. Tumor volumes (mm^3) were calculated as tumor length (mm)×tumor width (mm)×tumor height (mm) Tumor weights were determined by necropsy.
In another experiment, athymic nude mice received TOV-21G xenografts in the abdominal flank. After 14 days, subcutaneous hu-sActRIIB-Fc was administered weekly alone or in combination with 5-FU.

Test [3] has as its system Smad2 signaling (phospho-Smad2). Briefly: Western blot of phospho-Smad2 in tumors of inh-KO mice. Type of test: in vivo, mouse. The conditions noted are these: increase over WT controls, FIG. 5B. As to the method: as §3, §4
Another test concerns caspase-3. Nature of the test: Active caspase-3 immunostaining in gonadal tumor sections of inh-KO mice. Type of test: in vivo, mouse. The conditions noted are these: ovarian and testicular tissue sections of inh-KO mice, regions of residual tumor cells; FIG. 9. As to the method: as §3
Zinc-formalin fixed paraffin tumor tissue sections of 4 μm in thickness were prepared. The sections were subjected to antigen retrieval by microwave 3 min in Unmask solution (Vector H-3300) followed by incubation in 10 μg/ml Proteinase-K for 20 min and in 1% H2O2 in dH2O for 10 min at room temperature. The sections were further incubated in 0.1% Tween-20 in PBS for 3 min to permeabilize the cell membrane and in goat serum for 30 min to block non-specific binding. The sections were then incubated at room temperature with specific primary antibody for 3 hours followed by incubation in biotinylated or fluorescently labeled secondary antibody. Substrate developed in Vector SG kit (SK-4700) or DAB and nuclear-counterstained in Vector Fast Red (H-3403) or in hematoxylin. The immunostained tissue sections were analyzed and photographed using a Nikon Eclipse 90i microscope equipped with DS-Ril camera. […]

The next test has as its system CD31. Nature of the test: CD31 immunostaining in TOV-21G xenograft tumor sections. Type of test: in vivo, mouse. The conditions noted are these: FIG. 15B. How it is done: as §1, §2

B1: sActRIIB: extracellular domain of human activin type-2B receptor fused to IgG2 Fc, expressed in CHO cells; sequence in the 26th table (protein)
chain: ETRWCIYYNANWELERTNQGLERCEGEQDKRLHCYASWRNSSGTIELVKKGCWLDDFNCYDRQECVATEENPQVYFCCCEGNFCNERFTHLPEAGGPEVTYEPPPTAPTGGGGSVECPPCPAPPVAGPSVFLFPPKPKDTLMISRTPEVTCVVVDVSHEDPEVQFNWYVDGVEVHNAKTKPREEQFNSTFRVVSVLTVVHQDWLNGKEYKCKVSNKGLPAPIEKTISKTKGQPREPQVYTLPPSREEMTKNQVSLTCLVKGFYPSDIAVEWESNGQPENNYKTTPPMLDSDGSFFLYSKLTVDKSRWQQGNVFSCSVMHEALHNHYTQKSLSLSPGK
modifications: left off: a dimerising Fc or GST
For B1, the “release of Ang-1 into the culture medium” value in the test with Ang-1 is “blocked completely”. Also, the “VEGF immunostaining in TOV-21G tumor sections” value in the test with VEGF was “virtually none”. For the same molecule, in test [1], the “DNA fragmentation (TUNEL) in TOV-21G tumors” value is reported as “profound increases”. Moreover, the “E-cadherin immunoreactivity in ovarian sections” value in the test on E-cadherin (FIG. 6B) is given as “reappearance of distinctive E-cadherin immunoreactivity”. For the same molecule, the “E-cadherin protein in ovarian tumors (Western blot)” value in the test on E-cadherin (single injection, FIG. 6A) is “dramatically restored the lost E-cadherin”. Also, the “IGFPB-2 induction (Western blot)” value in the test on IGFPB-2 is recorded as “abolished completely”. Moreover, the “endoglin induction (Western blot)” value in the test on endoglin is “abolished completely”. The “IGFBP-1 induction (Western blot)” value in the test on IGFBP-1 is “abolished completely”. For the same molecule, the “levels of VEGF transcripts” value with VEGF transcripts is “prevented this induction”. Besides, the “endogenous βA mRNA expression” value in the test with activin-A (βA) mRNA is recorded as “blocked completely”. Also, in [2] (52 days after tumor cell injection, versus vehicle-treated tumor-bearing group, p<0.0001, weekly SC hu-sActRIIB-Fc from day 14, alone or with 5-FU), the tumor growth reduction was 43%. The “rate of tumor growth of TOV-21G xenografts” value in test [2] (chemotherapy combination experiment, sActRIIB 10 mg/kg SC 1x/week, 5-FU 50 mg/kg IP 3 cycles, alone or together, FIG. 13) is given as “decreased the rate of tumor growth significantly”. For the same molecule, in test [2] (nude mice, sActRIIB 30 mg/kg SC 1x/week or activin-A antibody 30 mg/kg SC 2x/week from day 12, FIG. 10B), the “growth of TOV-21G ovarian cancer xenografts” value is on record as “significantly inhibited the growth”. Moreover, in test [3], the “phospho-Smad2 in tumor tissues (Western blot)” value was “eliminated this increase in phospho-Smad2”. The “active caspase-3 immunostaining” value in the test on caspase-3 is “strong immunostaining of active caspase-3”. Further, the “CD31 immunostaining (newly formed microvessels) in TOV-21G tumor sections” value in the test on CD31 is reported as “lack of such new microvessels”.
